# Assay results from article PMC9014129.
# Target: CK2β^1–193-DBCO-Sulfo-Cy5 (human) (UniProt P67870)
# Experiment: other fluorescence titration; quenching of the fluorescence of 30 nM CK2β^1–193-DBCO-Sulfo-Cy5 by 0.3 nM to 5 µM CK2α variant; Monolith NT.115, mode initial fluorescence; 25°C; 500 mM NaCl, 25 mM TRIS/HCl, pH 8.5, 0.05% Tween 20
row,Kd [nM],Molecule
1,13.6,human CK2α (from UniProt P68400 1-391) (enzyme)
2,6.2,human CK2α^Lys198Arg (enzyme) MSGPVPSRARVYTDVNTHRPREYWDYESHVVEWGNQDDYQLVRKLGRGKYSEVFEAINITNNEKVVVKILKPVKKKKIKREIKILENLRGGPNIITLADIVKDPVSRTPALVFEHVNNTDFKQLYQTLTDYDIRFYMYEILKALDYCHSMGIMHRDVKPHNVMIDHEHRKLRLIDWGLAEFYHPGQEYNVRVASRYFRGPELLVDYQMYDYSLDMWSLGCMLASMIFRKEPFFHGHDNYDQLVRIAKVLGTEDLYDYIDKYNIELDPRFNDILGRHSRKRWERFVHSENQHLVSPEALDFLDKLLRYDHQSRLTAREAMEHPYFYTVVKDQARMGSSSMPGGSTPVSSANMMSGISSVPTPSPLGPLAGSPVIAAANPLGMPVPAAAGAQQ
